{
  "source": "paper PMC4380367",
  "key": {"[1]": {"target": "Msf 1-203 KIK66-68AIA (Neisseria meningitidis strain H44/76)", "experiment": "ELISA; Msf constructs (or control protein) coated at 3 μM in carbonate buffer pH 9.6; aVn 74 nM in PBS overlaid 1 h at RT; bound aVn detected with rabbit polyclonal anti-vitronectin"}, "[2]": {"target": "Msf 1-203 K60A (Neisseria meningitidis strain H44/76)", "experiment": "SDS-PAGE of unheated samples with Western blot; purified recombinant Msf proteins not heated before SDS-PAGE; detected with anti-Msf polyclonal antibody; bands near the trimeric molecular weight"}, "[3]": {"target": "Msf 1-203 KIK66-68AIA (Neisseria meningitidis strain H44/76)", "experiment": "SDS-PAGE of unheated samples with Western blot; purified recombinant Msf proteins not heated before SDS-PAGE; detected with anti-Msf polyclonal antibody; bands near the trimeric molecular weight"}, "[4]": {"target": "Msf 1-203 KK79-80AA (Neisseria meningitidis strain H44/76)", "experiment": "SDS-PAGE of unheated samples with Western blot; purified recombinant Msf proteins not heated before SDS-PAGE; detected with anti-Msf polyclonal antibody; bands near the trimeric molecular weight"}, "[5]": {"target": "Recombinant Msf 1-422 construct lacking amino acids 4-82 (Neisseria meningitidis strain H44/76)", "experiment": "SDS-PAGE of unheated samples with Western blot; purified recombinant Msf proteins not heated before SDS-PAGE; detected with anti-Msf polyclonal antibody; bands near the trimeric molecular weight"}, "[6]": {"target": "Human vitronectin in its unfolded, activated form (human)", "experiment": "ELISA; aVn coated at 74 nM; Msf constructs overlaid at 3 μM; bound Msf detected with rabbit anti-Msf polyclonal antiserum"}, "[7]": {"target": "Recombinant Msf fragment Msf 1-86 (strain H44/76) (Neisseria meningitidis strain H44/76)", "experiment": "SEC; HiLoad 16/60 Superdex 200 in 50 mM Tris pH 8, 200 mM NaCl; mass from peak elution volume against protein standards"}, "[8]": {"target": "Recombinant Msf fragment Msf 1-203 (strain H44/76) (Neisseria meningitidis strain H44/76)", "experiment": "SEC; HiLoad 16/60 Superdex 200 in 50 mM Tris pH 8, 200 mM NaCl; mass from peak elution volume against protein standards"}, "[9]": {"target": "Recombinant Msf fragment Msf 1-422 (strain H44/76) (Neisseria meningitidis strain H44/76)", "experiment": "SEC; HiLoad 16/60 Superdex 200 in 50 mM Tris pH 8, 200 mM NaCl; mass from peak elution volume against protein standards"}, "[10]": {"target": "Recombinant Msf fragment Msf 197-422 (strain H44/76) (Neisseria meningitidis strain H44/76)", "experiment": "SDS-PAGE of unheated samples with Western blot; purified recombinant Msf proteins not heated before SDS-PAGE; detected with anti-Msf polyclonal antibody; bands near the trimeric molecular weight"}},
  "data": [
    {"substance": "Human vitronectin in its unfolded, activated form (natural protein)", "values": [
      {"measurement": "reduction in Vn binding against Msf 1-203", "setting": "[1]", "result": 45, "unit": "%"}
    ]},
    {"substance": "Msf 1-203 K60A (domain or fragment)", "values": [
      {"measurement": "stoichiometry N", "setting": "[2]", "result": 3}
    ]},
    {"substance": "Msf 1-203 KIK66-68AIA (domain or fragment)", "values": [
      {"measurement": "stoichiometry N", "setting": "[3]", "result": 3}
    ]},
    {"substance": "Msf 1-203 KK79-80AA (domain or fragment)", "values": [
      {"measurement": "stoichiometry N", "setting": "[4]", "result": 3}
    ]},
    {"substance": "Recombinant Msf 1-422 construct lacking amino acids 4-82 (domain or fragment)", "values": [
      {"measurement": "stoichiometry N", "setting": "[5]", "result": 3},
      {"measurement": "fold reduction of binding against Msf 1-422", "setting": "[6]", "result": 4, "unit": "fold"}
    ]},
    {"substance": "Recombinant Msf fragment Msf 1-86 (strain H44/76) (domain or fragment)", "values": [
      {"measurement": "stoichiometry N", "setting": "[7]", "result": 3}
    ]},
    {"substance": "Recombinant Msf fragment Msf 1-203 (strain H44/76) (domain or fragment)", "values": [
      {"measurement": "stoichiometry N", "setting": "[8]", "result": 3}
    ]},
    {"substance": "Recombinant Msf fragment Msf 1-422 (strain H44/76) (domain or fragment)", "values": [
      {"measurement": "stoichiometry N", "setting": "[9]", "result": 3}
    ]},
    {"substance": "Recombinant Msf fragment Msf 197-422 (strain H44/76) (domain or fragment)", "values": [
      {"measurement": "stoichiometry N", "setting": "[10]", "result": 3},
      {"measurement": "fold lower binding than Msf 1-422", "setting": "[6]", "result": 6, "unit": "fold"}
    ]}
  ]
}
